Publication PMC10038035 (Journal of Enzyme Inhibition and Medicinal Chemistry, 2023)

Target: the molecule itself
Experiment: PrP aggregate formation assay (PAFA, thioflavin T fluorescence)

B1: His-tagged mouse recombinant PrP (23-231) (domain or fragment)
chain: not shown
Q: Does B1 bind?
A: binds
